Assay: soluble on expression in E. coli; label from the status in PepcDB or PDB records

| Sequence | soluble on expression in E. coli |
| --- | --- |
| MPPCYPFMLSWKGWARDSPGRPGGAMRAHIITYGCQMNEYDSHLVASELVSLGWELVDSVEEADFVLVNTCAVRGKPVEKVRSLLGQLRKEKERRGLLIGMMGCLAQLDEGQQMAKKFGVDVLLGPGALTSLPEALKANERFWDLTFREDVLDYIPPPPKGALSAHVTIIRGCNHHCTYCIVPTTRGPEVSRHPDLILKEIELLKQAGVVEVTLLGQNVNSYGKDQPGFPSFAELLRMVGGMGIPRVRFLTSHPVNFTDDIIEAIAETPAICRYIHLPVQSGSDRVLRRMAREYRRAHYLERIRKIREALPDAVLSTDIIVGFPGETEEDFQETLSLYDEVGYDQAYMFIYSPRPGTPAYKHFQDLPREVKVERLMRLIEKQKEWSYRRNLEWVGKTVEVLVRGEAKEEGFVQGHDRGNHPVLVPASQAPVPGLYQVEIKQATPHLLFGEVVGAEAPAPIPLPVA | soluble |
| MDLSELERDNTGRCRLSSPVPAVCLKEPCVLGVDEAGRGPVLGPMVYAICYCPLSRLADLEALKVADSKTLTENERERLFAKMEEDGDFVGWALDVLSPNLISTSMLGRVKYNLNSLSHDTAAGLIQYALDQNVNVTQVFVDTVGMPETYQARLQQHFPGIEVTVKAKADSLFPVVSAASIFAKVARDKAVKNWQFVENLQDLDSDYGSGYPNDPKTKAWLRKHVDPVFGFPQFVRFSWSTAQAILEKEAEDVIWEDSEAEEDPERPGKITSYFSQGPQTCRPQAPHRYFQERGLEAASSL | soluble |
| MSLNGLKRGFPVMKEQIGGKLICISGIPGTGKSTICNLLNDLGYTCVEGNALAVKYGCLSGDEVDVDCLSDRMRSDNFKGIVAAHYAHLLPCNIVIILEADESALRQRMMDRGYSPEKIDENLDAQRSDTIYAESLERLPANRIFRIRNADLNVALSDILRIIGGRNEGHHHHHH | soluble |
| AIAARPPPDPLYILRGSGASVNALHFCCDGDGPPLLYSGSGKGAVHVWNLSTRRAERVLESHAGNSVIWLNTFNNSRSCLISQGRDMRVCVWDLSEGRSAVTDSLHTGSVGFCQCSLLGSRLGSTLLAHPTQHMEEVSVVEMSSWTQVCSLKPDSNLGMLMSMKMWQADSGPVLCAGYEDGSVVLWDVSHRRPFSLLKVHPEPVMSLDVDVCRQKGISGSSENILQSWRLDNQQSLQMHDSIQMTNPGVSQLRIRADGKILASAGWDNNIRVFGWKKLKPLAVLQHHTDMVNSVAFSDHQDPTQRLLAAGSKDQRISVWSIYSES | soluble |
| SSGAQGAEPMDSRTATTYESVEGGQNKTKLDIRSKEDEGGIQVDKLQDKVSDAAGLGGPVFGAGKDDKKQDLGVTGTG | soluble |
| MGSDKIHHHHHHMMERLIIDDSRFNFVPKVKTAYKAPPGLDEKLIMEISRAKDEPEWMLKHRLESLKVFNEWHNPRFGVDISGLDLGKIVSYIKPDAKKSTSWEEVPEEVKEAFDKLGIPEAERKYLAGVGAQLDSEIVYQNMKKELEKMGVIFLDMESAVREYPDLVKKYFMKLVPITDHKFAALHGAIWSGGTFLYVPAGVKIPMPLQAYFLMSNPGMGQFEHTIIVAEEGSEVTFIEGCSAPRYNIINLHAGMVEIYVKKGAKVKYLTIQNWSKNTYNLNTKRSIVDEEGSMTWVSGSLGSQKTMLYPMTILKGKGARAESMSITYAGPGQHMDTGSKVVHLAPYTSSIVSAKSISLGGGWAFYRGLLKITKEAVKSKASVECAALMLDNRSKSDTVPIIEVETDRADVGHEARIGRIGEDQIFYLMSRGLSEQEAKAMIVKGFVEPVVKELPFEYAVELNKLLELEIEKSIG | not soluble |
| MGSDKIHHHHHHMTMVLDQVVPFGRSMDEYIKIFNLTDADLNKKIIGIGDGPASFNAEMTRQGKSVISVDPLYQFSGDEILQRFNEVLDNIINQVKATSNNWVWSYHKSPDDLRHNRVKVIREFLSDYENGKKSNRYIVDEFPKLKFKTQEFEIALCSHLLFLYSDHLDYDFHLNSIGEMLRIAKEIRIFPLITLMWKHSQHLDEIVKHYTSIGYKIDIENVEYELQPGGNKMLKITRDFYKNHNL | not soluble |
| PFTYSIEATRNLATTERCIQDIRNAPVRNRSTQFQLAQQNMLAYTFGEVIPGFASAGINGMDYRDVIGRPVENAVTEGTHFFRDDFRVDSNAKAKVAGDIFEIVSSAVMWNCAARWNSLMVGEGWRSQPRYSRPTLSPSPRRQVAVLNLPRSFDWVSLLVPESQEVIEEFRAGLRKDGLGLPTSTPDLAVVVLPEEFQNDEMWREEIAGLTRPNQILLSGAYQRLQGRVQPGEISLAVAFKRSLRSDRLYQPLYEANVMQLLLEGKLGAPKVEFEVHTLAPEGTNAFVTYEAASLYGLAEGRSAVHRAIRELYVPPTAADLARRFFAFLNERMELVNG | soluble |
| MSLILVYSTFPNEEKALEIGRKLLEKRLIACFNAFEIRSGYWWKGEIVQDKEWAAIFKTTEEKEKELYEELRKLHPYETPAIFTLKVENVLTEYMNWLRESVLEGGSHHHHHH | soluble |
| MSEKIRVLLYYKYVSIENAQEYAAKHLEFCKSIGLKGRILIADEGINGTVSGDYETTQKYMDWVHSDERFADLWFKIDEENQQAFRKMFVRYKKEIVHLGLEDNNFDSDINPLETTGEYLNPKQFKEALLDEDTVVLDTRNDYEYDLGHFRGAIRPDIRNFRELPQWVRDNKDKFMEKRVVVYCTGGVRCEKFSGWMVREGFKDVGQLHGGIATYGKDPEVQGELWDGAMYVFDDRISVPINHVNPTVISKDYFDGTPCERYVNCANPFCNKQIFASEENETKYVRGCSPECRAHERNRYVQENGLSRQEWAERLEAIGESLPEFVGA | not soluble |
| MGSDKIHHHHHHMLSHEEIVAIAEDLLSKRYGGVQTLSDVEQLNGSGTSAVLRARVANSPFLQQRSVVLKYVPSTGDVFDDSALVREIVSYQFTTSLSEDVRPGPVILAYDIDKRILVISDSGNGDTFADLIDQRTGDQRMQILRNLGQSLGSLHAATADREEDFNILLNRMLAKYPATAEMQKNRDRLLPAAIEVGKKILVDAGVTVPEVVEEFARVARRRLISGRHRAFTPFDLSPDNIIVAERTHFLDYEVAGFRDATFDVACVIAGFPQFVFSRPISDDEVDELIESWVQEVRGIWPNVNNEERLQARIVTALIGWALSSVAFMKLGSISGMLNLLHVTEDGNTTLDVSNLDELLIPRSAEDDELVQQDLHDTFSALQRFAARGLDSRFPEVARFADDVVRLFLKND | not soluble |
| MTQAATILRTGRKFDQVLRGAREVFMSDGFEGANVDDIARAAGVSKATLYSYFPDKRLLFVEVAQTECQLMAERILSMIDEDRPVREVLTITATQLVAFLISDFAQQVFRICLAERERFPELARAFYAAGPENGQRQICEYLEKAVTKGELVIADIPMAAEQFSELCKTRLWTRAVFGIQTRFTQAEIDEVALAAVDTFLARYGA | not soluble |
| SLVARSVVVSAEAVYSHEGEYVGDHVLVDEGLVKSISRGEPHVSVGKRVAVKGFLLPPLVDAHLHMRSLGASFRIVNLKGASSPEEVAKRLAAANSPIAVGRGWNEEEFRPGSRLDRRILDSYLGEKPALAVRICGHVAVANSAFIRESGVDKLFPNLVDRERGLLLEDAVSYAVSVAMKTYNNEELLRDAASALASVGVFGVSSMACSEEEVRALSLIGDALEVRVACYLRRGVEPPPKRAGARWSIVGVKLFADGSLGGRTAYLRRPYISGENEGWRGLKLLSSRDIAEEAVSNSHRGLATAVHAIGDAALDEVLEGFSNAISRGVEPGMLRVEHASLAWPNQIDRLASLRVWTVVQPLFRVSDWWLESRVGSDMLQAAYPFASMLRAGVKLALSTDAPVETYDPAETFKAAVGLCSSRLCRESESLTPRETLKLYTLNSALASGGPVAWLGRLRRGAPALFAVANVDVLNSGRKELEKLKFRGLNLAK | not soluble |
| SEKEKGNDDGIPDQENSLDFSEHFNQLELLETHGHLIPTGTQSLWVGNSDEDEEQDDKNEEWYRLQEKKMEKDPSRLLLWAAEKNRLTTVRRLLSEKATHVNTRDEDEYTPLHRAAYSGHLDIVQELIAQGADVHAVTVDGWTPLHSACKWNNTRVASFLLQHDADINAQTKGLLTPLHLAAGNRDSKDTLELLLMNRYVKPGLKNNLEETAFDIARRTSIYHYLFEIVEGCTNSSPQS | soluble |
| MGSDKIHHHHHHMGSGSVIWRLLPPAQGDPTTELAAGAAMLAGLKETNCPAIRWYAAGSRPALVIGSGQKLSDVDHTALRQQGVTLHRRSSGGTAVLFVPGLLMQDIALPLDHPLYHPDVSESYRWLGDVWQATLAQFGIHTSLIDIAAARADRQTLDPLIARACFGGQSPYEVLVAGRKLVGFAQIRRREGVLFQVGLYTHWPGRQLATLLAMNEAERTIFGERLADRVTDLVTVCESPPDIHQIAAAFAMVLRQRYEVSITAADWTEAEREAMIAAQARFAPLRLEG | not soluble |
| MSRAVTRSRLNSTTDQFMAEKINESDILERLNQTHTVRGFFITTVDVLTEAIDALMQRIFRKDNFAVKSVVEPLLHDTGPLGDLTVRLKLLFGLGVIPDEVFHDIEHLIKLRNQLNHDATEYQFTDPQILAPIKALNLVKKMGMLHLNVVEPDDDIDLSFYHLQLQRQQQVIKSGLSLAIIQICNALNK | not soluble |
| MSSYQQKQTFTPPPQLQQQQVKQPSQPPPQEIFVPTTKEPCHSKVPQPGNTKIPEPGCTKVPEPGCTKVPEPGCTKVPEPGCTKVPEPGCTKVPEPGYTKVPEPGSIKVPDQGFIKFPEPGAIKVPEQGYTKVPVPGYTKVPEPCPSTVTPGPAQQKTKQK | soluble |
| MRGFSGQPLSDDDNYRIEKTQRNTIPERLHFSRERNMPIASIFGTRGYFVFSSEQSYDKFKQTNFNISTLDADGVGVPLFHIVQSYNVIGKITRSSPDFYIYKYVLQGVQDPPLYSDCKVICQDKVFRLCKILYCEIYAHQGFFETKYDFFYPSKTQPVKKYQIIKQSNMRDLYSTLDGMRFRWHVKFYSDHFRLMFLDEDRLNYSNSNQKERQKPDQGKSKAPDFVIGHYTRTFSDILPRSTSKCSNLIIGEHSKPDSLGITTVPDLTQEFACQGALIHYLLHIERERK | soluble |
| MGSDKIHHHHHHGNLEEMNIDPDNATQTHPKLLLTQICMNAFKRGTDGMYATKKVIQADGESADQYYKWTRGSFGYYDNLRNVQKMGEEAERVNAPVYTALTKFFRAYYFYELTLRFGDIPYSQALKGEKEEIYTPEYDAQEDVFAGILQELREADEILANDASVIDGDIIYNGNSTQWRKLINSFRLKVLMTLSNHTTVGNINIASEFKNIATNSPLMNSLADNGQLVYLDQQGNRYPQFNAQWSGYYMDDTFIQRMRERRDPRLFIFSAQTNKGKTEGKPIDDFSSYEGGDPAAPYSDAIIKVSEGTISPINDRFRTDPIVEPTMLMGYAELQQILAEAVVRGWISGNAQTYYEKGIRASFSFYETHAKDYAGYLNENAVAQYLKEPLVDFTQASGTEEQIERIIMQKYLVTFYQGNWDSFYEQLRTGYPDFRRPAGTEIPKRWMYPQGEYDNNGTNVETAITRQFGAGNDKINQATWWQKKS | not soluble |
| QGTRVTLKVDKEYQQALSRGHSAGHLAYLALNKVLAASYWRKDADRKDPHGNYDFNSYAQEASFVTPDKCLDTYRLGKTLRKRGLNSAEMLSDLEKIEGQVNAQLKFWLERDAAIIMDCHGDNLTDSRYWKCDLGEGELAVIPCGGTHAEHLSDFGSIHVKLVEMDSQTIEMHTDVIACFSN | not soluble |
| MKYQIVTSGFGGQGAVFIVKLLSLCAGIKGEKYLGTENHGMSQRGGSVSCFIKVGDFYTPVIEENQADMIIALEQNEGLRTLQYLKKGGKLIVNADDSLPRLEGCEAIKVDAFSLAKEGRFPAQALNAFMVGVASMQSGFPFDEETLKKGLEMINPKVAESNIQVFELGRACAPRS | not soluble |
| GMAEPKFTSFTTADFINDVDMELFIDAVEKTAPVWVKEMKSRGLLKFSMNRVWNKGEVFRVVMTYEYKDRASFEANIAYLEDTFGKNPVFLQLVTTAKFTTSRCLVVMEV | soluble |

From the DeepSol protein solubility set
